Experimental data taken from patent publication US20240279310A1 (ALPINE IMMUNE SCIENCES, published 2024).
Changes are numbered by the printed parent chain. Numbers in names are those of the source. Where “and” joins values, the source holds several entries; their conditions need not be identical. Equal values may be shown once. Read-outs that look alike come from different tables or passages of the source.

Legend:
Assay in all cases: cell-based or functional assay
[1] = biological target: T1, recombinant human BAFF (BioLegend) (human, UniProt Q9Y275 134-285)
[2] = biological target: T2, recombinant human APRIL (Tonbo Biosciences) (human, UniProt O75888 105-250, limits assumed)
T2 sequence (looked up): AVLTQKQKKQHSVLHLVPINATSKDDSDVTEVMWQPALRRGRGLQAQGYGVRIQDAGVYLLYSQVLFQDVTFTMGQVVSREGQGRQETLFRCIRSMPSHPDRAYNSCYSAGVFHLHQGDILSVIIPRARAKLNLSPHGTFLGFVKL

[3] = biological target: T1, recombinant human BAFF (BioLegend); remark: listed apart in the source
[4] = biological target: T1, recombinant human BAFF (BioLegend); remark: listed apart in the source
[5] = biological target: T2, recombinant human APRIL (Tonbo …); remark: listed apart in the source
[6] = biological target: T2, recombinant human APRIL (Tonbo …); remark: listed apart in the source
[7] = biological target: BAFF 60-mer (an oligomer of twenty BAFF 3-mers)
[8] = biological target: T1, recombinant human BAFF (BioLegend); remark: listed apart in the source
[9] = biological target: T3, recombinant mouse BAFF (R & D Systems) (mouse, UniProt Q9WU72 127-309)
[10] = biological target: T1, recombinant human BAFF (BioLegend); remark: listed apart in the source
[11] = biological target: T2, recombinant human APRIL (Tonbo …); remark: listed apart in the source
rat BAFF = rat BAFF (rat)
cynomolgus monkey APRIL = cynomolgus monkey APRIL (cynomolgus monkey)
[12] = biological target: T4, recombinant mouse APRIL (ProSci Incorporated) (mouse, UniProt Q9D777 96-241, limits assumed)
T4 sequence (looked up): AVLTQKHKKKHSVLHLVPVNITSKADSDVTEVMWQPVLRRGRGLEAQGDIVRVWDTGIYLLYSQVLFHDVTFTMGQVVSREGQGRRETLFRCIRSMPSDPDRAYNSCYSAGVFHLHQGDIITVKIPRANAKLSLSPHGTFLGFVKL

cynomolgus monkey BAFF = cynomolgus monkey BAFF (cynomolgus monkey, UniProt A0A2K5V2X4 134-285)
[13] = biological target: T3, recombinant mouse BAFF (R & D Systems); remark: listed apart in the source
rat APRIL = biological target: T5, rat APRIL (rat, UniProt A0A8J8XC20 96-241)
T5 sequence: T4 sequence (looked up) with H11Q, V19I, V29M, V37A, I50T, W54R, R94K

[14] = biological target: T1, recombinant human BAFF (BioLegend); remark: listed apart in the source
[15] = biological target: T2, recombinant human APRIL (Tonbo …); remark: listed apart in the source
[16] = biological target: T2, recombinant human APRIL (Tonbo …); remark: listed apart in the source
[17] = biological target: T1, recombinant human BAFF (BioLegend); remark: listed apart in the source
[18] = biological target: T2, recombinant human APRIL (Tonbo …); remark: listed apart in the source
[19] = biological target: T1, recombinant human BAFF (BioLegend); remark: listed apart in the source
[20] = biological target: T2, recombinant human APRIL (Tonbo …); remark: listed apart in the source
[21] = biological target: T1, recombinant human BAFF (BioLegend); remark: listed apart in the source

T3 sequence (Q9WU72 127-309 limits assumed): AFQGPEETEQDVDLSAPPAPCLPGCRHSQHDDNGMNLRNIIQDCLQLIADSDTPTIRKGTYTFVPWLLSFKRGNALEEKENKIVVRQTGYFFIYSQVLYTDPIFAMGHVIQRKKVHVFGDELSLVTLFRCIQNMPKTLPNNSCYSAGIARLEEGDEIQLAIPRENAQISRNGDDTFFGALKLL

B1: belimumab, anti-BAFF monoclonal antibody (antibody, V domains shown)
VH: QVQLQQSGAEVKKPGSSVRVSCKASGGTFNNNAINWVRQAPGQGLEWMGGIIPMFGTAKYSQNFQGRVAITADESTGTASMELSSLRSEDTAVYYCARSRDLLLFPHHALSPWGRGTMVTVSS
VL: SSELTQDPAVSVALGQTVRVTCQGDSLRSYYASWYQQKPGQAPVLVIYGKNNRPSGIPDRFSGSSSGNTASLTITGAQAEDEADYYCSSRDSSGNHWVFGGGTELTVLG
B1 was tested, and the “BAFF IC50 (pM)” value [1] was 2200 pM, the “BAFF IC50 (Δ WT)” value [1] was 1.18 ratio and the “IC50 (nM) APRIL” value [2] was 215000 nM. The “IC50 APRIL (Δ TACI 30-110-Fc)” value [2] was 55.8 ratio, the “IC50 (nM) BAFF” value [3] was 2500 nM and the “IC50 BAFF (Δ TACI 30-110-Fc)” value [3] was 0.43 ratio. The “IC50 (pM) BAFF” value [4] was 2260 pM.

B2: Telitacicept/Tai'ai (RemeGen) (Fc fusion)
chain: SRVDQEERFPQGLWTGVAMRSCPEEQYWDPLLGTCMSCKTICNHQSQRTCAAFCRSLSCRKEQGKFYDHLLRDCISCASICGQHPKQCAYFCENKLRSPVNLPPEL
For B2, the “BAFF IC50 (pM)” value [1] was 9170 pM and 7300 pM, the “IC50 (pM) APRIL” value [5] was 17200 pM and the “IC50 (pM) BAFF” value [4] was 6850 pM.

B3: atacicept (WT TACI-Fc sequences corresponding to atacicept, containing WT TACI 30-110; SEQ ID NO:132) (Fc fusion)
chain: AMRSCPEEQYWDPLLGTCMSCKTICNHQSQRTCAAFCRSLSCRKEQGKFYDHLLRDCISCASICGQHPKQCAYFCENKLRSEPKSSDKTHTCPPCPAPEAEGAPSVFLFPPKPKDTLMISRTPEVTCVVVDVSHEDPEVKFNWYVDGVEVHNAKTKPREEQYNSTYRVVSVLTVLHQDWLNGKEYKCKVSNKALPSSIEKTISKAKGQPREPQVYTLPPSRDELTKNQVSLTCLVKGFYPSDIAVEWESNGQPENNYKTTPPVLDSDGSFFLYSKLTVDKSRWQQGNVFSCSVMHEALHNHYTQKSLSLSPGK
With B3 the “BAFF IC50 (pM)” value [1] was 7740 pM, the “BAFF IC50 (Δ WT)” value [1] was 4.17 ratio and the “IC50 (pM) APRIL” value [5] was 9260 pM. For the same binder, the “IC50 (pM) BAFF” value [4] was 8280 pM.

B4: TACI WT 13 GSG4S (74) Fc 73(G4S)4 (84) (TACI WT 13 (SEQ ID NO: 202) (Fc fusion)
chain: SLSCRKEQGKFYDHLLRDCISCASICGQHPKQCAYFCENKLRSGSGGGGSEPKSSDKTHTCPPCPAPEAEGAPSVFLFPPKPKDTLMISRTPEVTCVVVDVSHEDPEVKFNWYVDGVEVHNAKTKPREEQYNSTYRVVSVLTVLHQDWLNGKEYKCKVSNKALPAPIEKTISKAKGQPREPQVYTLPPSRDELTKNQVSLTCLVKGFYPSDIAVEWESNGQPENNYKTTPPVLDSDGSFFLYSKLTVDKSRWQQGNVFSCSVMHEALHNHYTQKSLSLSPGGGGGSGGGGSGGGGSGGGGSSLSCRKEQGKFYDHLLRDCISCASICGQHPKQCAYFCENKLRS
B4 was tested, and the “APRIL IC50 (pM)” value [6] was 11900 pM, the “BAFF 60-mer IC50 (pM)” value [7] was 2580 pM and the “BAFF IC50 (pM)” value [8] was 1040 pM.

B5: TACI 26 GSG4S (74) Fc 73 (G4S)4 (84) TACI 26 (SEQ ID NO: 201) (Fc fusion)
chain: B4 chain with K10E, F11Y, Y35D, K311E, F312Y, Y336D
With B5 the “APRIL IC50 (pM)” value [6] was 3760 pM, the “BAFF 60-mer IC50 (pM)” value [7] was 778 pM and the “BAFF IC50 (pM)” value [8] was 779 pM.

B6: TACI WT 13 (G4S)4 (84) (TACI WT 13 GSG4S (74) Fc 73 (SEQ ID NO: 198) (Fc fusion)
chain: SLSCRKEQGKFYDHLLRDCISCASICGQHPKQCAYFCENKLRSGGGGSGGGGSGGGGSGGGGSSLSCRKEQGKFYDHLLRDCISCASICGQHPKQCAYFCENKLRSGSGGGGSEPKSSDKTHTCPPCPAPEAEGAPSVFLFPPKPKDTLMISRTPEVTCVVVDVSHEDPEVKFNWYVDGVEVHNAKTKPREEQYNSTYRVVSVLTVLHQDWLNGKEYKCKVSNKALPAPIEKTISKAKGQPREPQVYTLPPSRDELTKNQVSLTCLVKGFYPSDIAVEWESNGQPENNYKTTPPVLDSDGSFFLYSKLTVDKSRWQQGNVFSCSVMHEALHNHYTQKSLSLSPG
In the case of B6, the “APRIL IC50 (pM)” value [6] is reported as 34600 pM, the “BAFF 60-mer IC50 (pM)” value [7] is reported as 4330 pM and the “BAFF IC50 (pM)” value [8] is reported as 3290 pM.

B7: 26 TACI CRD2-Fc (TACI vTD SEQ ID NO:26, K77E/F78Y/Y102D; Fc fusion SEQ ID NO: 167) (Fc fusion)
chain: SLSCRKEQGEYYDHLLRDCISCASICGQHPKQCADFCENKLRSGSGGGGSEPKSSDKTHTCPPCPAPEAEGAPSVFLFPPKPKDTLMISRTPEVTCVVVDVSHEDPEVKFNWYVDGVEVHNAKTKPREEQYNSTYRVVSVLTVLHQDWLNGKEYKCKVSNKALPAPIEKTISKAKGQPREPQVYTLPPSRDELTKNQVSLTCLVKGFYPSDIAVEWESNGQPENNYKTTPPVLDSDGSFFLYSKLTVDKSRWQQGNVFSCSVMHEALHNHYTQKSLSLSPG
B7 was tested, and the “IC50 (read off the curve)” value [9] was ~1000 pM, the IC50 value [10] was 0.078 µg/mL and the “APRIL IC50 (nM), signal inhibition in Jurkat/NF-κB/TACI cells” value (shortened to “APRIL IC50 (nM), signal inhibition”) [11] was 3.4 nM. The “BAFF IC50 (nM), signal inhibition in Jurkat/NF-κB/TACI cells” value (from here on “BAFF IC50 (nM), signal inhibition”) (rat BAFF) was 3.8 nM, the “APRIL IC50 (nM), signal inhibition” value (cynomolgus monkey APRIL) was 3.3 nM and the “APRIL IC50 (nM), signal inhibition” value [12] was 24.5 nM. For the same binder, the “BAFF IC50 (nM), signal inhibition” value (cynomolgus monkey BAFF) was 1.9 nM, the “BAFF IC50 (nM), signal inhibition” value [13] was 15.2 nM and the “APRIL IC50 (nM), signal inhibition” value (rat APRIL) was 22.7 nM. For the same binder, the “BAFF IC50 (nM), signal inhibition” value [14] was 2.8 nM, the “APRIL IC50 (pM)” value [15] was 9210 pM and the “APRIL IC50 (Δ WT)” value [15] was 0.75 ratio. For the same binder, the “BAFF IC50 (pM)” value [1] was 1550 pM, the “BAFF IC50 (Δ WT)” value [1] was 0.84 ratio and the “IC50 (nM) APRIL” value [16] was 214 nM. For the same binder, the “IC50 APRIL (Δ TACI 30-110)” value [16] was 0.05 ratio, the “IC50 (nM) BAFF” value [17] was 1270 nM and the “IC50 BAFF (Δ TACI 30-110)” value [17] was 0.28 ratio. For the same binder, the “IC50 (nM) APRIL” value [2] was 179 nM, the “IC50 APRIL (Δ TACI 30-110-Fc)” value [2] was 0.05 ratio and the “IC50 (nM) BAFF” value [3] was 1220 nM. The “IC50 BAFF (Δ TACI 30-110-Fc)” value [3] was 0.21 ratio, the “IC50 (pM) APRIL” value [5] was 1760 pM and the “IC50 (pM) BAFF” value [4] was 1340 pM. For the same binder, the “IC50 (read off the curve)” value [18] was ~600 pM and the “IC50 (read off the curve)” value [19] was ~2000 pM.

B8: TACI WT 131 GS(G4S)2 (194) scFc_218 (SEQ ID NO: 205) (Fc fusion)
chain: SRVDQEERFPQGLWTGVAMRSCPEEQYWDPLLGTCMSCKTICNHQSQRTCAAFCRSLSCRKEQGKFYDHLLRDCISCASICGQHPKQCAYFCENKLRSPVNLPPELGSGGGGSGGGGSEPKSSDKTHTCPPCPAPEAEGAPSVFLFPPKPKDTLMISRTPEVTCVVVDVSHEDPEVKFNWYVDGVEVHNAKTKPREEQYNSTYRVVSVLTVLHQDWLNGKEYKCKVSNKALPAPIEKTISKAKGQPREPQVYTLPPSRDELTKNQVSLTCLVKGFYPSDIAVEWESNGQPENNYKTTPPVLDSDGSFFLYSKLTVDKSRWQQGNVFSCSVMHEALHNHYTQKSLSLSPGGGGGSGGGGSGGGGSGGGGSGGGGSGGGGSGGGGSGGGGSGGGGSGGGGSGGGGSGGGGSEPKSSDKTHTCPPCPAPEAEGAPSVFLFPPKPKDTLMISRTPEVTCVVVDVSHEDPEVKFNWYVDGVEVHNAKTKPREEQYNSTYRVVSVLTVLHQDWLNGKEYKCKVSNKALPAPIEKTISKAKGQPREPQVYTLPPSRDELTKNQVSLTCLVKGFYPSDIAVEWESNGQPENNYKTTPPVLDSDGSFFLYSKLTVDKSRWQQGNVFSCSVMHEALHNHYTQKSLSLSPG
With B8 the “BAFF 60-mer IC50 (pM)” value [7] was 14300 pM and the “BAFF IC50 (pM)” value [8] was 4580 pM.

B9: 7 TACI CRD1/CRD2-Fc (Fc fusion)
TACI vTD-linker-Fc chain: VAMRSCPEEQYWDPLLGTCMSCKTICNHQSQRTCAAFCRSLSCRKEQGKFYDHLLRDCISCASICGQHPKQCDYFCENKLRSGSGGGGSEPKSSDKTHTCPPCPAPEAEGAPSVFLFPPKPKDTLMISRTPEVTCVVVDVSHEDPEVKFNWYVDGVEVHNAKTKPREEQYNSTYRVVSVLTVLHQDWLNGKEYKCKVSNKALPAPIEKTISKAKGQPREPQVYTLPPSRDELTKNQVSLTCLVKGFYPSDIAVEWESNGQPENNYKTTPPVLDSDGSFFLYSKLTVDKSRWQQGNVFSCSVMHEALHNHYTQKSLSLSPG
With B9 the “IC50 (read off the curve)” value [20] was ~3000 pM and the “IC50 (read off the curve)” value [21] was ~2000 pM.
